B2: full-length human lysosomal trafficking regulator-interacting protein 5 (FL-LIP5) (natural protein)
chain: MAALAPLPPLPAQFKSIQHHLRTAQEHDKRDPVVAYYCRLYAMQTGMKIDSKTPECRKFLSKLMDQLEALKKQLGDNEAITQEIVGCAHLENYALKMFLYADNEDRAGRFHKNMIKSFYTASLLIDVITVFGELTDENVKHRKYARWKATYIHNCLKNGETPQAGPVGIEEDNDIEENEDAGAASLPTQPTQPSSSSTYDPSNMPSGNYTGIQIPPGAHAPANTPAEVPHSTGVASNTIQPTPQTIPAIDPALFNTISQGDVRLTPEDFARAQKYCKYAGSALQYEDVSTAVQNLQKALKLLTTGREDYDIPTT
notes: spacer between the last LIP5 residue and the TEV protease site that precedes the His tag; same tag, TEV site and linker as ND-LIP5; No TEV cleavage is described; also called full-length LIP5; wild-type LIP5; source: E. coli BL21*(DE3), purified (HisTrap, SEC)

Conditions in all cases: both partners purified
The target of assay [1] is T1, human aquaporin 2 (AQP2), wild-type (human, UniProt P41181 1-271, cysteine residues labeled with C5 maleimide Alexa 488; dephosphorylated with alkaline phosphatase before labeling).
T1 construct: concentrations and molar ratios seem to count monomers; His-tag is called uncleavable; also called WT; labeled AQP2; source: Pichia pastoris, purified (HisTrap, SEC) in OGNG; not shown: His-tag, N-terminal, kept
T1 sequence (looked up): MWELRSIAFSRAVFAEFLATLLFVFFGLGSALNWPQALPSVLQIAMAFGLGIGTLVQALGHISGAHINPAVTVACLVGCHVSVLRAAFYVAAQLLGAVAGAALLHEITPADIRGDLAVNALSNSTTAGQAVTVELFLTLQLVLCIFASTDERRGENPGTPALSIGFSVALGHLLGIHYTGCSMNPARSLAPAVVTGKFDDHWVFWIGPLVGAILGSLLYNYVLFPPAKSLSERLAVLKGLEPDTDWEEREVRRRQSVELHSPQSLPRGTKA
In words: other fluorescence titration; Alexa 488-labeled, dephosphorylated AQP2 (around 1 uM) in the cuvette, titrated with unlabeled LIP5; total fluorescence; 20 mM Tris-HCl pH 8, 300 mM NaCl, 0.2% OGNG; triplicate titrations.

The target in assay [2] is T1, human aquaporin 2 (AQP2), wild-type. In words: other fluorescence titration; stoichiometry: labeled AQP2 kept 20 times above the Kd, LIP5 added to a molar LIP5:AQP2 ratio between 0 and 2; saturation point from the intercept of two linear fits; same buffers.
Assay [3] addresses B2. In words: other fluorescence titration; Alexa 488-labeled, dephosphorylated AQP2 (around 1 uM) in the cuvette, titrated with unlabeled LIP5; total fluorescence; 20 mM Tris-HCl pH 8, 300 mM NaCl, 0.2% OGNG; triplicate titrations.

The record followed here is publication PMC6862464, “Structural Insights into AQP2 Targeting to Multivesicular Bodies” (International Journal of Molecular Sciences, 2019).

B1: N-terminal domain of human LIP5 (ND-LIP5, residues 1-162) (domain or fragment)
chain: MAALAPLPPLPAQFKSIQHHLRTAQEHDKRDPVVAYYCRLYAMQTGMKIDSKTPECRKFLSKLMDQLEALKKQLGDNEAITQEIVGCAHLENYALKMFLYADNEDRAGRFHKNMIKSFYTASLLIDVITVFGELTDENVKHRKYARWKATYIHNCLKNGETPDYDIPTT
notes: LIP5, human, N-terminal domain, residues 1-162; spacer between the last ND-LIP5 residue and the TEV protease site that precedes the His tag; TEV site between spacer and His tag; no cleavage described; source: E. coli BL21*(DE3), purified (HisTrap, SEC)
Broadly, the Kd is a measure of binding affinity in units of concentration. Higher therefore signals weaker binding. In assay [1], B1 yielded a Kd of 64.4 nM. Besides, the “stoichiometry N” value in assay [2] was 0.29 molar ratio ND-LIP5:AQP2.

Regarding B2, the “stoichiometry N” value in assay [2] was 0.42 molar ratio FL-LIP5:AQP2.

B3: human AQP2 L230A (natural protein, UniProt P41181 1-271, looked up)
chain: MWELRSIAFSRAVFAEFLATLLFVFFGLGSALNWPQALPSVLQIAMAFGLGIGTLVQALGHISGAHINPAVTVACLVGCHVSVLRAAFYVAAQLLGAVAGAALLHEITPADIRGDLAVNALSNSTTAGQAVTVELFLTLQLVLCIFASTDERRGENPGTPALSIGFSVALGHLLGIHYTGCSMNPARSLAPAVVTGKFDDHWVFWIGPLVGAILGSLLYNYVLFPPAKSASERLAVLKGLEPDTDWEEREVRRRQSVELHSPQSLPRGTKA
modifications: cysteine residues labeled with C5 maleimide Alexa 488; dephosphorylated with alkaline phosphatase before labeling
notes: Mutant of m1; source: Pichia pastoris, purified (HisTrap, SEC) in OGNG; not shown: His-tag, N-terminal, kept
Molecule B3 gave a dissociation constant (Kd) in assay [3] of 156 nM.

B4: human AQP2 L237A (natural protein, UniProt P41181 1-271, looked up)
chain: MWELRSIAFSRAVFAEFLATLLFVFFGLGSALNWPQALPSVLQIAMAFGLGIGTLVQALGHISGAHINPAVTVACLVGCHVSVLRAAFYVAAQLLGAVAGAALLHEITPADIRGDLAVNALSNSTTAGQAVTVELFLTLQLVLCIFASTDERRGENPGTPALSIGFSVALGHLLGIHYTGCSMNPARSLAPAVVTGKFDDHWVFWIGPLVGAILGSLLYNYVLFPPAKSLSERLAVAKGLEPDTDWEEREVRRRQSVELHSPQSLPRGTKA
modifications: cysteine residues labeled with C5 maleimide Alexa 488; dephosphorylated with alkaline phosphatase before labeling
notes: as for B3
Regarding B4, in assay [3], the Kd amounted to 535 nM.

B5: human AQP2 K238A (natural protein, UniProt P41181 1-271, looked up)
chain: MWELRSIAFSRAVFAEFLATLLFVFFGLGSALNWPQALPSVLQIAMAFGLGIGTLVQALGHISGAHINPAVTVACLVGCHVSVLRAAFYVAAQLLGAVAGAALLHEITPADIRGDLAVNALSNSTTAGQAVTVELFLTLQLVLCIFASTDERRGENPGTPALSIGFSVALGHLLGIHYTGCSMNPARSLAPAVVTGKFDDHWVFWIGPLVGAILGSLLYNYVLFPPAKSLSERLAVLAGLEPDTDWEEREVRRRQSVELHSPQSLPRGTKA
modifications: cysteine residues labeled with C5 maleimide Alexa 488; dephosphorylated with alkaline phosphatase before labeling
notes: as for B3
With B5, in assay [3], the Kd turned out to be 552 nM.

B6: human AQP2 E241A (natural protein, UniProt P41181 1-271, looked up)
chain: MWELRSIAFSRAVFAEFLATLLFVFFGLGSALNWPQALPSVLQIAMAFGLGIGTLVQALGHISGAHINPAVTVACLVGCHVSVLRAAFYVAAQLLGAVAGAALLHEITPADIRGDLAVNALSNSTTAGQAVTVELFLTLQLVLCIFASTDERRGENPGTPALSIGFSVALGHLLGIHYTGCSMNPARSLAPAVVTGKFDDHWVFWIGPLVGAILGSLLYNYVLFPPAKSLSERLAVLKGLAPDTDWEEREVRRRQSVELHSPQSLPRGTKA
modifications: cysteine residues labeled with C5 maleimide Alexa 488; dephosphorylated with alkaline phosphatase before labeling
notes: as for B3
For the molecule B6, binding in assay [3] was characterised by a dissociation constant (Kd) of 700 nM.

B7: human AQP2 R233A (natural protein, UniProt P41181 1-271, looked up)
chain: MWELRSIAFSRAVFAEFLATLLFVFFGLGSALNWPQALPSVLQIAMAFGLGIGTLVQALGHISGAHINPAVTVACLVGCHVSVLRAAFYVAAQLLGAVAGAALLHEITPADIRGDLAVNALSNSTTAGQAVTVELFLTLQLVLCIFASTDERRGENPGTPALSIGFSVALGHLLGIHYTGCSMNPARSLAPAVVTGKFDDHWVFWIGPLVGAILGSLLYNYVLFPPAKSLSEALAVLKGLEPDTDWEEREVRRRQSVELHSPQSLPRGTKA
modifications: cysteine residues labeled with C5 maleimide Alexa 488; dephosphorylated with alkaline phosphatase before labeling
notes: as for B3
The molecule B7 registered an equilibrium dissociation constant (Kd) in assay [3] of 487 nM.

B8: human AQP2 L234A (natural protein, UniProt P41181 1-271, looked up)
chain: MWELRSIAFSRAVFAEFLATLLFVFFGLGSALNWPQALPSVLQIAMAFGLGIGTLVQALGHISGAHINPAVTVACLVGCHVSVLRAAFYVAAQLLGAVAGAALLHEITPADIRGDLAVNALSNSTTAGQAVTVELFLTLQLVLCIFASTDERRGENPGTPALSIGFSVALGHLLGIHYTGCSMNPARSLAPAVVTGKFDDHWVFWIGPLVGAILGSLLYNYVLFPPAKSLSERAAVLKGLEPDTDWEEREVRRRQSVELHSPQSLPRGTKA
modifications: cysteine residues labeled with C5 maleimide Alexa 488; dephosphorylated with alkaline phosphatase before labeling
notes: as for B3
Take B8: the affinity in assay [3], expressed as Kd, was 126 nM.
